Assay results reported in the supplement of paper PMC10724198.
± gives the standard deviation of the averaged measurements.

Key:
Saccharomyces cerevisiae [1] = test: protein stability index of tFT-peptide fusion (C-terminal peptide) (PSI (0-1 scale)); higher = more stable (slower turnover); conditions: genetic background: wild type; temperature: 30 C
Saccharomyces cerevisiae [2] = test: as above
Protocol: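 MPS profiling in S. cerevisiae of the tFT-X12 degron library: putative degron peptides plus stable controls, 12 aa, fused to the C-terminus of a sfGFP-mCherry timer. Cells are FACS-sorted into 8 mCherry/sfGFP bins and deep-sequenced. PSI runs from 0 (unstable) to 1 (stable). Backgrounds are wild type, das1Δ and doa10Δ at 30 °C, and wild type, das1Δ, cdc34-1 and cdc53-1 at 37 °C; 2-3 technical replicates each.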

[3] = genetic background: cdc34-1, temperature: 37 C
[4] = genetic background: cdc53-1, temperature: 37 C
[5] = genetic background: das1 deletion, temperature: 30 C
[6] = genetic background: das1 deletion, temperature: 37 C
[7] = genetic background: doa10 deletion, temperature: 30 C
[8] = genetic background: wild type, temperature: 30 C
[9] = genetic background: wild type, temperature: 37 C
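Note: PSI is a weighted mean of sequencing reads over stability bins, variants kept only with over 10 reads, mCherry proximal and sfGFP distal, peptide attached via GGGS linker.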

| Sequence | protein stability index (Saccharomyces cerevisiae [1]) | protein stability index (Saccharomyces cerevisiae [2]; [3]) | protein stability index (Saccharomyces cerevisiae [2]; [4]) | protein stability index (Saccharomyces cerevisiae [2]; [5]) | protein stability index (Saccharomyces cerevisiae [2]; [6]) | protein stability index (Saccharomyces cerevisiae [2]; [7]) | protein stability index (Saccharomyces cerevisiae [2]; [8]) | protein stability index (Saccharomyces cerevisiae [2]; [9]) |
| --- | --- | --- | --- | --- | --- | --- | --- | --- |
| FLGPYTPGMYLA | 0.359 ± 0.037 | 0.656 ± 0.031 | 0.7393 ± 0.0022 | 0.658 ± 0.015 | 0.7435 ± 0.0044 | 0.208 ± 0.011 | 0.258 ± 0.019 | 0.482 ± 0.0086 |
| FLISVRFVLILN | 0.173 ± 0.024 | 0.169 ± 0.027 | 0.186 ± 0.012 | 0.175 ± 0.021 | 0.278 ± 0.01 | 0.143 ± 0.0081 | 0.135 ± 0.0052 | 0.208 ± 0.0085 |
| FLLFLPLLFFFL | 0.3904 ± 0.001 | 0.414 ± 0.037 | 0.396 ± 0.0095 | 0.396 ± 0.024 | 0.456 ± 0.013 | 0.4578 ± 0.0037 | 0.377 ± 0.018 | 0.4384 ± 0.0031 |
| FLLHLVAHFSFL | 0.527 ± 0.044 | 0.544 ± 0.014 | 0.571 ± 0.0063 | 0.517 ± 0.0071 | 0.531 ± 0.0066 | 0.473 ± 0.027 | 0.472 ± 0.017 | 0.503 ± 0.003 |
| FLLIVSSVSFYL | 0.342 ± 0.052 | 0.209 ± 0.016 | 0.2981 ± 0.00045 | 0.213 ± 0.024 | 0.3885 ± 0.0014 | 0.177 ± 0.0069 | 0.207 ± 0.021 | 0.346 ± 0.0035 |
| FLLLSCLVRRSF | 0.4628 ± 0.00075 | 0.508 ± 0.054 | 0.6 ± 0.018 | 0.454 ± 0.017 | 0.611 ± 0.01 | 0.404 ± 0.014 | 0.429 ± 0.0061 | 0.549 ± 0.018 |
| FLRFVFSFTFFV | 0.321 ± 0.0054 | 0.387 ± 0.0054 | 0.382 ± 0.019 | 0.408 ± 0.031 | 0.411 ± 0.0061 | 0.265 ± 0.0046 | 0.24 ± 0.028 | 0.3144 ± 0.0024 |
| FLVGVARCPFLV | 0.361 ± 0.012 | 0.632 ± 0.069 | 0.7 ± 0.015 | 0.587 ± 0.018 | 0.725 ± 0.053 | 0.244 ± 0.021 | 0.254 ± 0.034 | 0.401 ± 0.012 |
| FLVLLFCLFFCF | 0.462 ± 0.026 | 0.463 ± 0.053 | 0.447 ± 0.021 | 0.43 ± 0.024 | 0.552 ± 0.015 | 0.524 ± 0.007 | 0.43 ± 0.033 | 0.4952 ± 0.0042 |
| FMCGWRMLVSVS | 0.0594 ± 0.023 | 0.0379 ± 0.032 | 0.0371 ± 0.0077 | 0.0474 ± 0.016 | 0.0676 ± 0.027 | 0.0307 ± 0.0023 | 0.0292 ± 0.011 | 0.045 ± 0.019 |
| FPGLPVFFPPPL | 0.726 ± 0.015 | 0.707 ± 0.052 | 0.766 ± 0.015 | 0.689 ± 0.026 | 0.769 ± 0.012 | 0.709 ± 0.039 | 0.703 ± 0.011 | 0.731 ± 0.012 |
| FPRLERVAVMAR | 0.25 ± 0.011 | 0.117 ± 0.035 | 0.127 ± 0.035 | 0.177 ± 0.032 | 0.244 ± 0.0086 | 0.145 ± 0.0069 | 0.167 ± 0.025 | 0.221 ± 0.031 |
| FQILLRFFRSVA | 0.324 ± 0.017 | 0.5907 ± 0.0037 | 0.657 ± 0.025 | 0.551 ± 0.022 | 0.612 ± 0.0079 | 0.189 ± 0.003 | 0.206 ± 0.029 | 0.4 ± 0.017 |
| FRAKRTVFQRNS | 0.441 ± 0.012 | 0.671 ± 0.044 | 0.737 ± 0.039 | 0.668 ± 0.028 | 0.718 ± 0.01 | 0.2585 ± 0.0011 | 0.289 ± 0.0073 | 0.526 ± 0.021 |
| FRFFRPSFRFFC | 0.2 ± 0.06 | 0.588 ± 0.015 | 0.713 ± 0.021 | 0.624 ± 0.0092 | 0.7518 ± 0.0026 | 0.107 ± 0.014 | 0.118 ± 0.0071 | 0.221 ± 0.033 |
| FRFPCSILMTLL | 0.258 ± 0.028 | 0.578 ± 0.011 | 0.6111 ± 0.0035 | 0.538 ± 0.021 | 0.622 ± 0.026 | 0.196 ± 0.0043 | 0.197 ± 0.013 | 0.297 ± 0.036 |
| FRQEVLHWRQHS | 0.342 ± 0.077 | 0.622 ± 0.064 | 0.712 ± 0.032 | 0.633 ± 0.035 | 0.727 ± 0.028 | 0.167 ± 0.048 | 0.145 ± 0.035 | 0.332 ± 0.015 |
| FRWLAFALLFGC | 0.245 ± 0.0079 | 0.416 ± 0.011 | 0.477 ± 0.027 | 0.38 ± 0.012 | 0.495 ± 0.025 | 0.1758 ± 0.00032 | 0.166 ± 0.018 | 0.348 ± 0.0068 |
| FSARPFLYSFRP | 0.028 ± 0.0092 | 0.694 ± 0.024 | 0.743 ± 0.0082 | 0.667 ± 0.025 | 0.7416 ± 0.0052 | 0.653 ± 0.037 | 0.654 ± 0.0083 | 0.711 ± 0.0089 |
| FSCEFKMSCLKS | 0.507 ± 0.011 | 0.649 ± 0.04 | 0.701 ± 0.0097 | 0.601 ± 0.023 | 0.679 ± 0.016 | 0.474 ± 0.015 | 0.488 ± 0.029 | 0.605 ± 0.017 |

| Sequence | protein stability index (Saccharomyces cerevisiae [1]) | protein stability index (Saccharomyces cerevisiae [2]; [3]) | protein stability index (Saccharomyces cerevisiae [2]; [4]) | protein stability index (Saccharomyces cerevisiae [2]; [5]) | protein stability index (Saccharomyces cerevisiae [2]; [6]) | protein stability index (Saccharomyces cerevisiae [2]; [7]) | protein stability index (Saccharomyces cerevisiae [2]; [8]) | protein stability index (Saccharomyces cerevisiae [2]; [9]) |
| --- | --- | --- | --- | --- | --- | --- | --- | --- |
| FSIFFIIEFVGT | 0.242 ± 0.12 | 0.179 ± 0.038 | 0.211 ± 0.0069 | 0.209 ± 0.015 | 0.374 ± 0.013 | 0.157 ± 0.011 | 0.187 ± 0.028 | 0.324 ± 0.022 |
| FSSYLSALLIVV | 0.246 ± 0.012 | 0.102 ± 0.047 | 0.1279 ± 0.00017 | 0.176 ± 0.017 | 0.242 ± 0.0039 | 0.155 ± 0.0065 | 0.167 ± 0.029 | 0.214 ± 0.019 |
| FSYVGFFFLLGF | 0.414 ± 0.016 | 0.417 ± 0.051 | 0.471 ± 0.0073 | 0.346 ± 0.021 | 0.494 ± 0.0069 | 0.392 ± 0.049 | 0.352 ± 0.025 | 0.467 ± 0.0053 |
| FTYCIVFFFSRL | 0.457 ± 0.014 | 0.428 ± 0.024 | 0.537 ± 0.038 | 0.383 ± 0.038 | 0.571 ± 0.045 | 0.379 ± 0.011 | 0.391 ± 0.03 | 0.494 ± 0.021 |
| FTYFFFVRVLLV | 0.187 ± 0.0053 | 0.11 ± 0.045 | 0.14 ± 0.01 | 0.156 ± 0.031 | 0.2772 ± 0.00032 | 0.11 ± 0.0067 | 0.118 ± 0.0091 | 0.129 ± 0.0084 |
| FVCSSVFVVLLF | 0.45 ± 0.044 | 0.349 ± 0.017 | 0.423 ± 0.023 | 0.295 ± 0.029 | 0.4769 ± 0.001 | 0.264 ± 0.017 | 0.294 ± 0.054 | 0.464 ± 0.026 |
| FVFLCLLCISSF | 0.278 ± 0.012 | 0.202 ± 0.0059 | 0.286 ± 0.011 | 0.214 ± 0.027 | 0.355 ± 0.006 | 0.193 ± 0.01 | 0.2 ± 0.03 | 0.3152 ± 0.0017 |
| FVGCFVFYLFLL | 0.417 ± 0.013 | 0.422 ± 0.023 | 0.479 ± 0.016 | 0.418 ± 0.031 | 0.5184 ± 0.0036 | 0.394 ± 0.011 | 0.362 ± 0.035 | 0.458 ± 0.027 |
| FVRVFMASIIWC | 0.452 ± 0.0082 | 0.478 ± 0.032 | 0.487 ± 0.034 | 0.395 ± 0.029 | 0.508 ± 0.024 | 0.391 ± 0.012 | 0.376 ± 0.036 | 0.518 ± 0.013 |
| FVVFAFGVLPVK | 0.466 ± 0.011 | 0.496 ± 0.005 | 0.5131 ± 0.0027 | 0.389 ± 0.028 | 0.552 ± 0.012 | 0.361 ± 0.019 | 0.388 ± 0.039 | 0.514 ± 0.0089 |
| FVVRVVCRLGFF | 0.325 ± 0.015 | 0.2226 ± 0.0011 | 0.338 ± 0.014 | 0.218 ± 0.027 | 0.374 ± 0.02 | 0.182 ± 0.0026 | 0.215 ± 0.012 | 0.3396 ± 0.0013 |
| FWFSFLLSGVCC | 0.347 ± 0.04 | 0.24 ± 0.031 | 0.171 ± 0.013 | 0.272 ± 0.029 | 0.29 ± 0.0029 | 0.257 ± 0.012 | 0.268 ± 0.022 | 0.266 ± 0.016 |
| FWFVSVFIVFFC | 0.223 ± 0.026 | 0.185 ± 0.0033 | 0.26 ± 0.021 | 0.222 ± 0.043 | 0.337 ± 0.022 | 0.179 ± 0.018 | 0.164 ± 0.034 | 0.279 ± 0.018 |
| FYLPGLFFVRFR | 0.391 ± 0.022 | 0.167 ± 0.072 | 0.0822 ± 0.053 | 0.313 ± 0.043 | 0.33 ± 0.019 | 0.616 ± 0.037 | 0.272 ± 0.026 | 0.29 ± 0.04 |
| FYVIFRRACLSV | 0.292 ± 0.077 | 0.281 ± 0.0084 | 0.32 ± 0.016 | 0.234 ± 0.03 | 0.3605 ± 0.0029 | 0.1681 ± 0.00044 | 0.195 ± 0.0079 | 0.299 ± 0.0099 |
| GACGLGMLIFIV | 0.411 ± 0.0075 | 0.585 ± 0.04 | 0.618 ± 0.03 | 0.427 ± 0.026 | 0.623 ± 0.015 | 0.256 ± 0.012 | 0.29 ± 0.02 | 0.511 ± 0.017 |
| GAPIFSSFLLFC | 0.412 ± 0.026 | 0.541 ± 0.054 | 0.652 ± 0.022 | 0.579 ± 0.032 | 0.667 ± 0.012 | 0.332 ± 0.028 | 0.31 ± 0.028 | 0.5425 ± 0.0023 |
| GARCFGFFCFLV | 0.207 ± 0.011 | 0.4284 ± 0.0039 | 0.507 ± 0.027 | 0.447 ± 0.032 | 0.582 ± 0.011 | 0.127 ± 0.0078 | 0.115 ± 0.017 | 0.169 ± 0.0064 |
| GCIFGNVVFVRV | 0.472 ± 0.062 | 0.602 ± 0.031 | 0.6098 ± 0.0023 | 0.424 ± 0.03 | 0.6335 ± 0.0023 | 0.433 ± 0.02 | 0.433 ± 0.022 | 0.611 ± 0.0075 |
